Results on six compounds are retold here after patent publication US20250288704A1, “CXCR4-LIGANDS FOR DIAGNOSTIC AND THERAPEUTIC USE AND PRECURSORS THEREOF” (priority 2021, published 2025).

One series addresses CXCR4 (Homo sapiens, UniProt P61073). Kind of series: Determination of IC50: competition with 125I-Fc-131 on CXCR4-positive Jurkat cells.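 Further: test compound at 10^−5 to 10^−11 M competed for 2 h at 8 °C with the radioligand on 400,000 cells per well, bound versus free activity measured by γ-counting.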 Format: binding. On the set-up: CXCR4-positive Jurkat T lymphocyte cells were grown in Gibco's RPMI 1640 GlutaMAX medium; endogenous in cells; host or cells: Jurkat T lymphocyte cells (whole cells in suspension, 400.000 per tube).
The nature of series [1]: Octanol/PBS partition coefficient (logD7.4). Format: physicochemical. The settings on record: n-octanol/PBS pH 7.4, radiolabeled compound. The procedure:
The tubes were vortexed at maximum speed for 3 min to ensure equilibrium before centrifugation at 15.000×g for 5 min on a Biofuge 15 from Heraeus Holding GmbH (Osterode, Germany). An aliquot of 100 μL of each fraction was measured in the γ-counter and the log D7.4 calculated as follows: […]

Series [2] can be described thus: Biodistribution in Jurkat tumor-bearing CB-17 SCID mice. Format: in vivo. The settings on record: female, CB-17 SCID, mouse, in vivo, iv, total radioactivity, 1 h p.i., Jurkat xenograft, CB-17 SCID female mice. The procedure:
All animal experiments were conducted in accordance with general animal welfare regulations in Germany and the institutional guidelines for the care and use of animals. To establish tumor xenografts, Jurkat cells (2-3×10^7 cells) were suspended in a mixture of Gibco's RPMI 1640 medium and Matrigel (1/1; v/v) from BD Biosciences (Heidelberg, Germany), and inoculated subcutaneously onto the right shoulder of 6-10 weeks old CB17-SCID mice from either Charles River GmbH (Sulzfeld, Germany) or the in-house mouse breeding facility. Mice were used when tumors had grown to a diameter of 5-8 mm (4-10 weeks after inoculation).
Approximately 0.5-20 MBq (0.02-0.20 nmol) of the ^125I-, ^177Lu-, ^99mTc-, ^18F- or ^68Ga-labeled ligand were injected into the tail vein of Jurkat tumor-bearing CB-17 SCID mice and the animals sacrificed after the respective biodistribution time. Selected organs were removed, weighted and measured in a γ-counter.

Setting [3] is: unlabeled or cold (natGa/natLu) compound vs 125I-Fc-131, Jurkat cells.

Each structure is given as a SMILES string. Read-outs that look alike come from different tables or passages of the source. Starred links: 1 amine or outer side, 2 acyl side, 3 side chain; linkers in the order of their positions; H or OH if unused. Positions of bridges follow the written chain, without caps; N, C: chain ends. Non-standard residues stand in square brackets, D forms with d. Residues, ends and D or L forms follow the SMILES beside them. Groups on a side chain read outwards from the residue. Chains are numbered I, II in the order given. *: point of attachment. X6 = CN1/C(=C/C=C/C=C/C2=[N+](CCCCCC(=O)*)c3ccc(S(=O)(=O)[O-])cc3C2(C)C)C(C)(C)c2cc(S(=O)(=O)O)ccc21; X2 = OC[C@H]1O[C@@H](O[C@H]2[C@H](O)[C@@H](O)[C@H](*)O[C@@H]2CO)[C@H](O)[C@@H](O)[C@H]1O; X7 = O=C(O)CN1CCN(CC(=O)O)CCN([C@H](CCC(=O)*)C(=O)O)CCN(CC(=O)O)CC1; Benzoyl(4-SiFtBu2) = CC(C)(C)[Si](F)(c1ccc(C(=O)*)cc1)C(C)(C)C; X5 = CC(C)(C)[Si](F)(c1ccc(C[N+](C)(C)CC(=O)*)cc1)C(C)(C)C; DOTA = O=C(O)CN1CCN(CC(=O)O)CCN(CC(=O)*)CCN(CC(=O)O)CC1; Dolaproine = CO[C@@H]([C@@H]1CCCN1)[C@@H](C)C(=O)O; Dil = CC[C@H](C)[C@H](NC)[C@@H](CC(=O)O)OC; d(γGlu) = O=C(O)[C@@H](CCC(=O)[*:2])N[*:1]; Tyr(3-I) = N[C@@H](Cc1ccc(O)c(I)c1)C(=O)O; X11 = O=C1CC([*:2])C(=O)N1CCCCCC(=O)[*:1]; 2Nal = N[C@@H](Cc1ccc2ccccc2c1)C(=O)O; d2Nal = N[C@H](Cc1ccc2ccccc2c1)C(=O)O; PABC = O=C(OCc1ccc(N[*:1])cc1)[*:2]; X10 = C[C@@H](N*)[C@@H](O)c1ccccc1; Cit = NC(=O)NCCC[C@H](N)C(=O)O; dNMeOrn = CN[C@H](CCCN)C(=O)O; NMeV = CN[C@H](C(=O)O)C(C)C; d(hCys) = N[C@H](CCS)C(=O)O; 4Abz = Nc1ccc(C(=O)O)cc1; dDap = NC[C@@H](N)C(=O)O; CO = O=C([*:1])[*:2]; Ahx = NCCCCCC(=O)O

CXCR4, sequence (P61073 whole entry): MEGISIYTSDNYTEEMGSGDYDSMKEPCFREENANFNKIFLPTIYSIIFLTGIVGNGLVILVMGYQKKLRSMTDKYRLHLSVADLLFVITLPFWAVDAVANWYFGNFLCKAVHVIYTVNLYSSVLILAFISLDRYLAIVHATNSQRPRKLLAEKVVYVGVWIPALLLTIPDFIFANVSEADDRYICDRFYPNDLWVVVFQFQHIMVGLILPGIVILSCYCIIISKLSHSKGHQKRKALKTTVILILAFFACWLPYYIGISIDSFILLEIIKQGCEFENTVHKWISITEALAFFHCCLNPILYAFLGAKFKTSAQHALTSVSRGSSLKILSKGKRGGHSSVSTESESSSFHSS

A word on the IC50: it is the midpoint of a concentration-inhibition curve. Read a high IC50 as lower potency. Compound `CC[C@H](C)[C@@H]([C@@H](CC(=O)N1CCC[C@H]1[C@H](OC)[C@@H](C)C(=O)N[C@H](C)[C@@H](O)c1ccccc1)OC)N(C)C(=O)[C@@H](NC(=O)[C@H](C(C)C)N(C)C(=O)OCc1ccc(NC(=O)[C@H](CCCNC(N)=O)NC(=O)[C@@H](NC(=O)CCCCCN2C(=O)CC(SCC[C@@H](NC(C)=O)C(=O)N[C@H](CNC(=O)CC[C@H](C(=O)O)N3CCN(CC(=O)O)CCN(CC(=O)O)CCN(CC(=O)O)CC3)C(=O)NCCCCCC(=O)N[C@H](CN)C(=O)N[C@H](CCCNC(=N)N)C(=O)N[C@H](C)C(=O)Nc3ccc(C(=O)NCCC[C@@H]4C(=O)N[C@@H](CCCNC(=N)N)C(=O)N[C@@H](Cc5ccc6ccccc6c5)C(=O)NCC(=O)N[C@H](Cc5ccc(O)cc5)C(=O)N4C)cc3)C2=O)C(C)C)cc1)C(C)C` (stereo partly shown) [CXCR4-MMAE-4] (I: V[Cit][PABC][NMeV]V[Dil][Dolaproine]-X10 / II: Ac-[d(hCys)][dDap](X7)[Ahx][dDap][dR][dA][4Abz] / III: cyclo([2Nal]G[dY][dNMeOrn]R); linker I:N-II:1 via X11; amide II:C-III:4) registered an IC50 on CXCR4 of 0.113 ± 0.02 µM. Moreover, the logD7.4 in series [1] is on record as −1.04 ± 0.07 (8).

`C[C@@H](NC(=O)[C@@H](CCCNC(=N)N)NC(=O)[C@@H](CN)NC(=O)CCCCC[N+]1=C(/C=C/C=C/C=C2/N(C)c3ccc(S(=O)(=O)O)cc3C2(C)C)C(C)(C)c2cc(S(=O)(=O)[O-])ccc21)C(=O)Nc1ccc(C(=O)NCCC[C@@H]2C(=O)N[C@@H](CCCNC(=N)N)C(=O)N[C@H](Cc3ccc4ccccc4c3)C(=O)NCC(=O)N[C@@H](Cc3ccc(O)c(I)c3)C(=O)N2C)cc1` [CXCR4-OI-2] (cyclo([Tyr(3-I)][dNMeOrn]([4Abz-dA-dR-dDap-X6])R[d2Nal]G)) had an IC50 on CXCR4 (setting [3]) of 0.0102 ± 0.00395 µM. Moreover, the tissue uptake at 1 h in series [2] (Blood, read-out: % iD/g Blood) came to 1.73 %ID/g; in series [2] (Bone, read-out: % iD/g Bone) it was 1.2 %ID/g; in series [2] (Heart, read-out: % iD/g Heart) it was 1.84 %ID/g; in series [2] (Intestine, read-out: % iD/g Intestine) it was 1.88 %ID/g; in series [2] (Kidney, read-out: % iD/g Kidney) it was 13.9 %ID/g; in series [2] (Liver, read-out: % iD/g Liver), 35.3 %ID/g. For the same compound, the tissue uptake at 1 h worked out at 5.54 %ID/g in series [2] (Lung, read-out: % iD/g Lung); 0.41 %ID/g in series [2] (Muscle, read-out: % iD/g Muscle); 1.1 %ID/g in series [2] (Pancreas, read-out: % iD/g Pancreas); 16.1 %ID/g in series [2] (Spleen, read-out: % iD/g Spleen); 4.01 %ID/g in series [2] (Stomach, read-out: % iD/g Stomach); 1.46 %ID/g in series [2] (Thyroid, read-out: % iD/g Thyroid). Further, the tissue uptake at 1 h in series [2] (Tumor, read-out: % iD/g Tumor) was determined as 1.1 %ID/g. The logD7.4 in series [1] is listed as −1.83 ± 0.02 (5).

For the compound `C[C@@H](NC(=O)[C@@H](CCCNC(=N)N)NC(=O)[C@@H](CN)NC(=O)[C@@H](CNC(=O)CC[C@H](C(=O)O)N1CCN(CC(=O)O)CCN(CC(=O)O)CCN(CC(=O)O)CC1)NC(=O)[C@@H](CNC(=O)c1ccc([Si](F)(C(C)(C)C)C(C)(C)C)cc1)NC(=O)CC[C@@H](NC(=O)N[C@H](CCC(=O)O)C(=O)O)C(=O)O)C(=O)Nc1ccc(C(=O)NCCC[C@@H]2C(=O)N[C@@H](CCCNC(=N)N)C(=O)N[C@@H](Cc3ccc4ccccc4c3)C(=O)NCC(=O)N[C@H](Cc3ccc(O)cc3)C(=O)N2C)cc1` [CXCR4-SiFA-4 [Lu]] (I: {dE-CO-d(γGlu)}-[dDap](Benzoyl(4-SiFtBu2))[dDap](X7)[dDap][dR][dA][4Abz] / II: cyclo([dY][dNMeOrn]R[2Nal]G); amide I:C-II:2), the IC50 at CXCR4 (setting [3]) turned out to be 0.0934 ± 0.0102 µM. Also, the logD7.4 in series [1] is reported as −1.71 ± 0.09 (8).

`C[C@@H](NC(=O)[C@@H](CCCNC(=N)N)NC(=O)[C@@H](CN)NC(=O)CCCCCNC(=O)[C@@H](CNC(=O)CC[C@H](C(=O)O)N1CCN(CC(=O)O)CCN(CC(=O)O)CCN(CC(=O)O)CC1)NC(=O)[C@@H](CNC(=O)c1ccc([Si](F)(C(C)(C)C)C(C)(C)C)cc1)NC(=O)CC[C@@H](NC(=O)N[C@H](CCC(=O)O)C(=O)O)C(=O)O)C(=O)Nc1ccc(C(=O)NCCC[C@@H]2C(=O)N[C@@H](CCCNC(=N)N)C(=O)N[C@@H](Cc3ccc4ccccc4c3)C(=O)NCC(=O)N[C@H](Cc3ccc(O)cc3)C(=O)N2C)cc1` [CXCR4-SiFA-5 [Lu]] (I: {dE-CO-d(γGlu)}-[dDap](Benzoyl(4-SiFtBu2))[dDap](X7)[Ahx][dDap][dR][dA][4Abz] / II: cyclo([dY][dNMeOrn]R[2Nal]G); amide I:C-II:2): the half-maximal inhibitory concentration (IC50) on CXCR4 (setting [3]) amounted to 0.0458 ± 0.0174 µM. Besides, in series [1], the logD7.4 was −1.73 ± 0.05 (6).

As to `C[C@@H](NC(=O)[C@@H](CCCNC(=N)N)NC(=O)[C@@H](CN)NC(=O)CCCCCNC(=O)[C@@H](CNC(=O)CC[C@H](C(=O)O)N1CCN(CC(=O)O)CCN(CC(=O)O)CCN(CC(=O)O)CC1)NC(=O)C[N+](C)(C)Cc1ccc([Si](F)(C(C)(C)C)C(C)(C)C)cc1)C(=O)Nc1ccc(C(=O)NCCC[C@@H]2C(=O)N[C@@H](CCCNC(=N)N)C(=O)N[C@@H](Cc3ccc4ccccc4c3)C(=O)NCC(=O)N[C@H](Cc3ccc(O)cc3)C(=O)N2C)cc1` [CXCR4-SiFA-6 [Lu]], the IC50 on CXCR4 (setting [3]) was found to be 0.00829 ± 0.00311 µM. In addition, in series [1], the logD7.4 is recorded as −0.85 ± 0.04 (6).

For the compound `C[C@@H](NC(=O)[C@@H](CCCNC(=N)N)NC(=O)[C@@H](CN)NC(=O)CCCCCNC(=O)[C@@H](CNC(=O)CN1CCN(CC(=O)O)CCN(CC(=O)O)CCN(CC(=O)O)CC1)NC(=O)[C@@H](CCS[C@@H]1O[C@H](CO)[C@@H](O[C@@H]2O[C@H](CO)[C@H](O)[C@H](O)[C@H]2O)[C@H](O)[C@H]1O)NC(=O)C[N+](C)(C)Cc1ccc([Si](F)(C(C)(C)C)C(C)(C)C)cc1)C(=O)Nc1ccc(C(=O)NCCC[C@@H]2C(=O)N[C@@H](CCCNC(=N)N)C(=O)N[C@@H](Cc3ccc4ccccc4c3)C(=O)NCC(=O)N[C@H](Cc3ccc(O)cc3)C(=O)N2C)cc1` [CXCR4-SiFA-7 [Lu]] (I: X5-[d(hCys)](X2)[dDap](DOTA)[Ahx][dDap][dR][dA][4Abz] / II: cyclo([dY][dNMeOrn]R[2Nal]G); amide I:C-II:2), the IC50 at CXCR4 (setting [3]) turned out to be 0.00605 ± 0.00117 µM. Also, the logD7.4 in series [1] is recorded as −2.23 ± 0.11 (7).
